According to patent US20220106398A1 (IGM BIOSCIENCES, published 2022):
Substitutions are numbered along the chain they refer to.

T1: human His6-GITR (human, UniProt Q9Y5U5 26-162)
T1 construct: His6-tagged recombinant protein; also called hGITR-His; human GITR-His
T1 sequence: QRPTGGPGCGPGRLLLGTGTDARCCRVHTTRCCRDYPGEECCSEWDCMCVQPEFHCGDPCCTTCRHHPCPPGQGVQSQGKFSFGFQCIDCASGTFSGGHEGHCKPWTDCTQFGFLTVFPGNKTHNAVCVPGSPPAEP

T2: cynomolgus monkey His6-GITR (cynomolgus monkey)
T2 construct: His6-tagged recombinant protein; also called cGITR-His; cyno GITR-His
T2 chain: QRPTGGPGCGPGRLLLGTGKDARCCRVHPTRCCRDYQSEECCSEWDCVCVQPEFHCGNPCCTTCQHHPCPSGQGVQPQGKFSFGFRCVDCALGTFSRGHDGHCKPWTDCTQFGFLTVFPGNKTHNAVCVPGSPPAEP

T3: mouse His6-GITR (mouse, UniProt O35714 20-153)
T3 construct: His6-tagged recombinant protein; also called mGITR-His; mouse GITR-His
T3 sequence: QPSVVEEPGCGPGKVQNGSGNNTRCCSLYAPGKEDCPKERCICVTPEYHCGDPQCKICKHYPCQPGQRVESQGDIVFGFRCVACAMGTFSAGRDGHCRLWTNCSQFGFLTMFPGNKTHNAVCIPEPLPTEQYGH

B1: GITR-Mab-4 scFv (scFv, V domains shown)
VH: EVQLLESGGGLVQPGGSLRLSCAASGFTFSSYDMHWVRQAPGKGLEWVSAISSSGGSIYYADSVKGRFTISRDNSKNTLYLQMNSLRAEDTAVYYCARDSVVVPKGPNRKYYYYGMDVWGQGTKVTVSS
VL: not shown
notes: scFv in periplasmic extract, V5 tag
B2: GITR-Mab-36 scFv (scFv, V domains shown)
VH: QVQLVQSGAEVKKPGASVKVSCKASGYTFTRNYIHWVRQAPGQGLEWMGWINPKSGGTKYAQKFQGRVTMTRDTSTSTVYMELSSLRSEDTAVYYCARESGVVATEYWYFDLWGRGTLVTVSS
VL: not shown
notes: as for B1
B3: GITR-Mab-30 scFv (scFv, V domains shown)
VH: QVQLVQSGAEVKKPGASVKVSCKASGGTFSSYAISWVRQAPGQGLEWMGIIDPTGGATAYAQEFQGRVTMTRDTSTSTVYMELSSLRSEDTAVYYCARVGYYYGMDVWGQGTMVTVSS
VL: not shown
notes: as for B1
B4: GITR-Mab-34 scFv (scFv, V domains shown)
VH: EVQLLESGGGLVQPGGSLRLSCAASGFTFSSYWMHWVRQAPGKGLEWVSVISNSGGATYYADSVKGRFTISRDNSKNTLYLQMNSLRAEDTAVYYCAREGWGYGMDVWGQGTTVTVSS
VL: DIQMTQSPSSLSASVGDRVTITCRASQDIRNYLAWYQQKPGKAPKLLIYTASTLQSGVPSRFSGSGSGTDFTLTISSLQPEDFATYYCQQTFRTPLTFGGGTKVEIK
notes: as for B1
B5: GITR-Mab-1 scFv (scFv, V domains shown)
VH: QVQLVQSGAEVKKPGASVKVSCKASGYTFTNYHLHWVRQAPGQGLEWMGMINPNDGSTTYAQKFQGRVTMTRDTSTSTVYMELSSLRSEDTAVYYCARSTYYYDSSGYYYYYYGMDVWGQGTTVTVSS
VL: EIVMTQSPATLSVSPGERATLSCRASQSVYSNYLAWYQQKPGQAPRLLIYGASTRATGIPARFSGSGSGTEFTLTISSLQSEDFAVYYCQQYHSYPLTFGGGTKVEIK
notes: as for B1
B6: GITR-Mab-28 scFv (scFv, V domains shown)
VH: QVQLVQSGAEVKKPGASVKVSCKASGYTFPNYGITWVRQAPGQGLEWMGWMNPNSGYTGYAQNFQGRVTMTRDTSTSTVYMELSSLRSEDTAVYYCARGMPGRGFDPWGQGTLVTVSS
VL: B5 VL with Y30S, S94T, L97P, G101Q, V105L
notes: as for B1
B7: GITR-Mab-31 scFv (scFv, V domains shown)
VH: QVQLVQSGAEVKKPGSSVKVSCKASGGTFSSYAISWVRQAPGQGLEWMGGIIPISSATSIPQKFQGRVTITADESTSTAYMELSSLRSEDTAVYYCARSYDSRYYGMDVWGQGTTVTVSS
VL: B5 VL with S28T, Y30G, N32R, H93Y, Y95T, L97W, G101Q, K104R, V105L
notes: as for B1
B8: GITR-Mab-45 scFv (scFv, V domains shown)
VH: QVQLVQSGAEVKKPGASVKVSCKASGYTFTSYGISWVRQAPGQGLEWMGWMNPNSGNTGYAQKFQGRVTMTRDTSTSTVYMELSSLRSEDTAVYYCAREVYGDLDYWGQGTLVTVSS
VL: DIQMTQSPSSLSASVGDRVTITCRASQGIDNWLAWYQQKPGKAPKLLIYGASTLQSGVPSRFSGSGSGTDFTLTISSLQPEDFATYYCQQSYTARFTFGPGTKVDIK
notes: as for B1
B9: GITR-Mab-40 scFv (scFv, V domains shown)
VH: EVQLLESGGGLVQPGGSLRLSCAASGFTFRNHWMSWVRQAPGKGLEWVSGISWNSGSIDYADSVKGRFTISRDNSKNTLYLQMNSLRAEDTAVYYCAREEYATFDYWGQGTLVTVSS
VL: not shown
notes: as for B1
B10: GITR-Mab-37 scFv (scFv, V domains shown)
VH: QVQLVQSGAEVKKPGASVKVSCKASGYTFTSYYMHWVRQAPGQGLEWMGWINPNSGGTNYAQKFQGRVTMTRDTSTSTVYMELSSLRSEDTAVYYCASPGDYCSGGSCYSDDAFDIWGQGTMVTVSS
VL: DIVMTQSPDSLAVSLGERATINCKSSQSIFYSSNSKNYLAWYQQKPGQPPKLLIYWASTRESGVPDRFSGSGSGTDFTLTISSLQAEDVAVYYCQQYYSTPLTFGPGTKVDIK
notes: as for B1
B11: GITR-Mab-27 scFv (scFv, V domains shown)
VH: QVQLVQSGAEVKKPGASVKVSCKASGYTFTSYDINWVRQAPGQGLEWIGWMNTNSGDTGYAQKFQGRVTMTRDTSTSTVYMELSSLRSEDTAVYYCARQAYSSSWYWYGWFDPWGQGTLVTVSS
VL: DIQMTQSPSSLSASVGDRVTITCQASHDIDNYLNWYQQKPGKAPKLLIYAASNLQSGVPSRFSGSGSGTDFTLTISSLQPEDFATYYCQQANSFPLTFGPGTKVDIK
notes: as for B1
B12: GITR-Mab-35 scFv (scFv, V domains shown)
VH: QVQLVQSGAEVKKPGASVKVSCKASGYTFTNYYMHWVRQAPGQGLEWMGLITPSGGRTKYAQKFQGRVTMTRDTSTSTVYMELSSLRSEDTAVYYCAREMEYSSSWYWFDPWGQGTLVTVSS
VL: B4 VL with R24Q, D28G, R30S, N31S, A34N, T50A, T91S, F92Y, R93S
notes: as for B1
B13: GITR-Mab-33 scFv (scFv, V domains shown)
VH: EVQLLESGGGLVKPGGSLRLSCAASGFMFSSYSMNWVRQAPGKGLEWVSYISGNSGYTNYADSVKGRFTISRDDSKNTLYLQMNSLKTEDTAVYYCARRLHGMDVWGQGTTVTVSS
VL: DIQMTQSPSSLSASVGDRVTITCRASQSISTWLAWYQQKPGKAPKLLIYDASNLETGVPSRFSGSGSGTDFTLTISSLQPEDFATYYCQQAYRFPVAFGGGTKVEIK
notes: as for B1
B14: GITR-Mab-39 scFv (scFv, V domains shown)
VH: EVQLLESGGGLVKPGGSLRLSCAASGFTFSSYWMSWVRQAPGKGLEWVSSISWSSTYIYYADSVKGRFTISRDDSKNTLYLQMNSLKTEDTAVYYCARDGQLGHWHFDLWGRGTLVTVSS
VL: B13 VL with T31D, D50E, N53K, E55A, A91S, R93T, F94T, V96L, A97T
notes: as for B1
B15: GITR-Mab-32 scFv (scFv, V domains shown)
VH: QVQLVQSGAEVKKPGASVKVSCKASGGTFSSYAISWVRQAPGQGLEWMGWMNPNSGDTGYAQKFQGRVTMTRDTSTSTVYMELSSLRSEDTAVYYCARGPWYFDLWGRGTLVTVSS
VL: DIQMTQSPSSLSASVGDRVTITCRVSQGISNSLAWYQQKPGKAPKLLIYAASSLQSGVPSRFSGSGSGTDFTLTISSLQPEDFATYYCQQSYSTVYTFGQGTKLEIK
notes: as for B1
B16: GITR-Mab-38 scFv (scFv, V domains shown)
VH: QVQLVQSGAEVKKPGASVKVSCKASGGTFRNYAINWVRQAPGQGLEWMGWMNPNSGNTGYAQKFQGRVTMTRDTSTSTVYMELSSLRSEDTAVYYCAREDVDTASQAYFDYWGQGTLVTVSS
VL: B15 VL with V25A, S32Y, A50S, S53N, S91G, T94S, V95R
notes: as for B1
B17: GITR-Mab-29 scFv (scFv, V domains shown)
VH: QVQLVQSGAEVKKPGASVKVSCKASGYTFSSDYIHWVRQAPGQGLEWMGRINPSGGSTLYARRFQGRVTMTRDTSTSTVYMELSSLRSEDTAVYYCARERGAADTWYFDLWGRGTLVTVSS
VL: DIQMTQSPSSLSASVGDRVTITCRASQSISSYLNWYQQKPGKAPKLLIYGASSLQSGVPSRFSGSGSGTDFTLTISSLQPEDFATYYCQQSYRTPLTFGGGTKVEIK
notes: as for B1

Biological target: T1, human His6-GITR
Test: ELISA, scFv periplasmic extract on coated His6-GITR
Protocol: (§1) The SuperHuman-2.0 scFv Antibody Library (available from Distributed Bio, South San Francisco, Calif.) was used to perform selection with human, cynomolgus or mouse GITR proteins. Selected phage clones from overnight growth were inoculated into wells in 96 well deep well plates containing 1 mL of medium. scFv expression was induced by addition of IPTG (Teknova) to a final concentration of 1 mM. Plates were grown overnight after induction. To prepare periplasmic extracts (PPE), the plates containing the phage clones were centrifuged at 2500 rpm for 10 min, the supernatant discarded and then pellets treated with 75 μL of cold periplasmic extract buffer with appropriate concentration of protease inhibitors (Complete Mini, EDTA-free -Roche Applied Biosciences—Cat No 1836170). After shaking at room temperature for 10 min, 225 μL of cold ddH2O with added protease inhibitor (1 tablet/50 mL) was added per well and mixed by pipetting up and down. PPE extraction was completed by incubation at room temperature for an additional 1 hr. The plates were then centrifuged at 4000 rpm for 20 minutes and 200 μL of PPE supernatant was collected from each well and transferred to a new plate which was then blocked with equal volume of 4% milk (2% final) to prepare blocked PPE extracts. In the meantime, Maxisorp plates (Nunc 442404) coated with relevant antigen (human, mouse or cynomolgus monkey His6-GITR) at 50 μl/well of 1 μg/mL antigen or 2% BSA in PBS as control were prepared for ELISA analyses. Next, 50 μL of each blocked PPE extract was transferred to the pre-blocked ELISA plates coated with the relevant antigens. After incubation and washing 3× with PBS, 50 μL of anti-V5 tag antibody (tag included in the phage display constructs, Invitrogen Cat No R960-25) at 1:5000 dilution in 2% milk was added and the plates were incubated for 1 hr. […] After further washing 3× with PBST, 50 μl/well of TMB substrate was added and the plates were developed until positive controls were visible. The reaction was stopped with 50 μl/well of 2N H2SO4. Plates were read at 450 nm to determine ELISA signal from bound PPE derived scFv.

hGITR-His/BKG [fold over background] | Binder
9.6 | B1
8.8 | B2
18.7 | B3
7.7 | B4
13.2 | B5
11.5 | B6
17.7 | B7
1.4 | B8
13.9 | B9
13.2 | B10
24.6 | B11
25.3 | B12
17.7 | B13
4.2 | B14
18 | B15
2.9 | B16
12.4 | B17

Biological target: T2, cynomolgus monkey His6-GITR
Test: as above
Protocol: as §1

cGITR-His/BKG [fold over background] | Binder
10.3 | B1
1.4 | B2
1 | B3
1.1 | B4
15.8 | B5
1 | B6
1.2 | B7
15.5 | B9
11.7 | B10
1 | B11
0.9 | B12
1.3 | B13
4 | B14
4.9 | B15
1.1 | B17

Biological target: T3, mouse His6-GITR
Test: as above
Protocol: as §1

mGITR-His/BKG [fold over background] | Binder
16.1 | B1
0.9 | B2
1 | B3
1.2 | B4
1.1 | B5
1 | B6
1.2 | B7
4.5 | B8
23.2 | B9
13.7 | B10
1.3 | B11
0.9 | B12
1 | B13
4.4 | B14
1 | B15
1 | B17
